Measurements taken from US20240026022A1 (OSSIANIX, published 2024).
Values belong to the binder of their own block, whether it stands above or below them.

What was measured:
[1] = target: T1, human TfR-1 on the cell surface (hCMEC/D3 and SY-SH5Y cells) (human, UniProt P02786 1-760); test: flow cytometry on hCMEC/D3 cells, percent positive cells, on ice
T1 construct: whole, on cells; also called cell surface TfR1; cell-surface hTfR1
Procedure: FIG. 2. Binding of TXP1 to hCMEC/D3 cells by flow cytometry. Approximately 10,000 cells were incubated with serially diluted TXP1 for 1 hour on ice. TXP1 binding was detected using anti-human IgG Alexa488-conjugated secondary antibody. PI staining was used to exclude dead cells from the analysis. The cells were fixed and analyzed by flow cytometry. 1,000 cells per condition were acquired. Gating of cells stained with secondary antibody only allowed to set a fluorescence threshold for negative signal.
(§1) Flow cytometry. hCMEC/D3 cells (Weksler 2013) were seeded onto V-bottom 96-well plates at a density of 1×10⁴ cells/well. After blocking in PBS containing 10% BSA (FACS buffer) for 20 min on ice, cells were incubated with serial dilutions of TXP1. Cells were stained with propidium iodine (PI; Biolegend) for 20 min on ice, followed by anti-hFc conjugated to Alexa488 diluted 1:300 (Jackson ImmunoResearch) for 30 min on ice. After fixation in 4% PFA for 15 min on ice, the cells were analyzed on a CytoFlex flow cytometer (Beckman Coulter). Gating of cells stained with secondary antibody established the fluorescence threshold for the negative signal. The fluorescence intensity of approximately 1000 cells per condition was measured. Dead or dying cells were excluded from the analysis by propidium iodide staining. EC50 values were calculated using a four parametric non-linear regression model.

HSA = target: T2, HSA (human, UniProt P02768 25-609); test: ELISA, plate coated with HSA, detection with anti-hFc HRP and TMB
T2 construct: Negative control
T2 sequence (P02768 25-609): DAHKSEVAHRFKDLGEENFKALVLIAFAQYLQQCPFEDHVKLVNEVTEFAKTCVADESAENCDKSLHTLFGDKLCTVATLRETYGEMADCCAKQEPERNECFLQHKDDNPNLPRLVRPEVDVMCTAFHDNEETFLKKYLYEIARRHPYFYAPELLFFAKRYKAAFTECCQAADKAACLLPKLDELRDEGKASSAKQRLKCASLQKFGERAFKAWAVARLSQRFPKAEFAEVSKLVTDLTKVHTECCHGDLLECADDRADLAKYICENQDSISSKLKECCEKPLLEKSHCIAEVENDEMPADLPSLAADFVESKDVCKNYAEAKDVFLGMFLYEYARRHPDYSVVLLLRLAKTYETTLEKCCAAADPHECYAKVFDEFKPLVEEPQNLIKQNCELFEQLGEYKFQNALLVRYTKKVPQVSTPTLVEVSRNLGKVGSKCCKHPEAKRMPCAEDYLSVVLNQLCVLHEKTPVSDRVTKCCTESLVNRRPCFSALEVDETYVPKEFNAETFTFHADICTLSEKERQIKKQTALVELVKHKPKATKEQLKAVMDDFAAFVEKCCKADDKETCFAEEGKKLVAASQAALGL
Procedure: (§2) FIG. 1. Cross-species reactivity of TXP1 assessed by ELISA. Plates were coated with either mouse, human, cynomolgus or rat TfR-1. HSA was used as a negative control. Serial dilutions of TXP1 (a VNAR antibody) were added to the plate and binding was measured by end-point ELISA upon incubation with secondary anti-hFc HRP-conjugated antibodies and visualization with TMB.
(§3) TfR-1 binding ELISA. Nunc MaxiSorp plates were coated with 100 μl of 1 μg/ml of in-house purified recombinant human, mouse, rat and cynomolgus TfR-1 and incubated at 4° C. overnight. Plates were incubated with blocking buffer (2.5% non-fat dry milk in PBST) for 1 h at RT. Serially-diluted TXP1 was mixed with non-fat dry milk in PBST to a final concentration of 2.5% and incubated for 30 min. Blocked TXP1 solutions (100 μl) were transferred to the blocked plates and incubated for 1 hr. Plates were washed with PBST and incubated with anti-hFc HRP-conjugated antibody diluted 1:5,000 (Sigma) in blocking buffer for 30 min. Plates were washed and developed with SureBlue™ TMB substrate, the reaction stopped with 1% HCl and absorbance measured at 450 nm.

recombinant rat TfR-1 = target: T3, recombinant rat TfR-1 (rat, UniProt Q99376 87-761, limits assumed); test: ELISA, plate coated with recombinant rat TfR-1, detection with anti-hFc HRP and TMB
T3 construct: also called rTfR-1
T3 sequence (Q99376 87-761 limits assumed): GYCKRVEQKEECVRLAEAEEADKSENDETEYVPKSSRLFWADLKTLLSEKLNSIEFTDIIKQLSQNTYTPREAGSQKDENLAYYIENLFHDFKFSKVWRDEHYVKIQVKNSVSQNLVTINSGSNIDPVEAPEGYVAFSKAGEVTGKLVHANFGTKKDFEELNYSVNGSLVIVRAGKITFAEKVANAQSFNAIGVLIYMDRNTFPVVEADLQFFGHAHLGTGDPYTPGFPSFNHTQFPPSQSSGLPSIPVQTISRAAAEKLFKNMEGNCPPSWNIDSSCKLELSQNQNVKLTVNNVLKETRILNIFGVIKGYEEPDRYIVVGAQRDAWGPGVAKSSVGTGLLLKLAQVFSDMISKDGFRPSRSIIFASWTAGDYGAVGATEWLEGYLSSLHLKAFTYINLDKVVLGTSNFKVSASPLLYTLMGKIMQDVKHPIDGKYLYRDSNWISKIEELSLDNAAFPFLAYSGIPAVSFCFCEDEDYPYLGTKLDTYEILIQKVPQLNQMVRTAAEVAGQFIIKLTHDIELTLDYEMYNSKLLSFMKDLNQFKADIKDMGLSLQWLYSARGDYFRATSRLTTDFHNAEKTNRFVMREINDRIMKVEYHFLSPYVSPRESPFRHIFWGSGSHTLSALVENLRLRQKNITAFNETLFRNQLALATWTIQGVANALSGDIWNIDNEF
Procedure: as §2, §3

recombinant mouse TfR-1 = target: T4, recombinant mouse TfR-1 (mouse, UniProt Q62351 89-763, limits assumed); test: ELISA, plate coated with recombinant mouse TfR-1, detection with anti-hFc HRP and TMB
T4 construct: also called mTfR-1
T4 sequence (Q62351 89-763 limits assumed): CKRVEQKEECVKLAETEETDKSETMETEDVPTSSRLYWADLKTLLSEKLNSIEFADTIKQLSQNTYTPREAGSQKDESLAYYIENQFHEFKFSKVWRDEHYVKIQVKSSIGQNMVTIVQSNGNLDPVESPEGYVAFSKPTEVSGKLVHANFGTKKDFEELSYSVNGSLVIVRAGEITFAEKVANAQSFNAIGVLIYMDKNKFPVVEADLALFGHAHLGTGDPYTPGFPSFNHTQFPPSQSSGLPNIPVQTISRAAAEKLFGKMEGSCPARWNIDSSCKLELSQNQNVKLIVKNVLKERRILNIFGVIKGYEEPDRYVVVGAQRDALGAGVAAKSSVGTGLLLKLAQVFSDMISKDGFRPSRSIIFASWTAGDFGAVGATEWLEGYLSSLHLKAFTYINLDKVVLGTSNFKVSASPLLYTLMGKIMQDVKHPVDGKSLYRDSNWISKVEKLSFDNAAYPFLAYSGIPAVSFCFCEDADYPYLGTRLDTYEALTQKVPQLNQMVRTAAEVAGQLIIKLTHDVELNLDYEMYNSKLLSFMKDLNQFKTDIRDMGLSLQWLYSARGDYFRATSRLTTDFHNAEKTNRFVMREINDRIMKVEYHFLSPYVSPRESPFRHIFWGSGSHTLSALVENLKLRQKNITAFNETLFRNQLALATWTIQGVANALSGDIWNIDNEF
Procedure: as §2, §3

[2] = target: T5, recombinant human TfR-1 (transferrin receptor-1) (human, UniProt P02786 89-760); test: ELISA, plate coated with human TfR-1, anti-hFc HRP, 4-parameter fit; drawn table under the curves
T5 construct: extracellular domain; In-house purified recombinant protein; also called hTfR-1; hTfR1
T5 sequence (P02786 89-760): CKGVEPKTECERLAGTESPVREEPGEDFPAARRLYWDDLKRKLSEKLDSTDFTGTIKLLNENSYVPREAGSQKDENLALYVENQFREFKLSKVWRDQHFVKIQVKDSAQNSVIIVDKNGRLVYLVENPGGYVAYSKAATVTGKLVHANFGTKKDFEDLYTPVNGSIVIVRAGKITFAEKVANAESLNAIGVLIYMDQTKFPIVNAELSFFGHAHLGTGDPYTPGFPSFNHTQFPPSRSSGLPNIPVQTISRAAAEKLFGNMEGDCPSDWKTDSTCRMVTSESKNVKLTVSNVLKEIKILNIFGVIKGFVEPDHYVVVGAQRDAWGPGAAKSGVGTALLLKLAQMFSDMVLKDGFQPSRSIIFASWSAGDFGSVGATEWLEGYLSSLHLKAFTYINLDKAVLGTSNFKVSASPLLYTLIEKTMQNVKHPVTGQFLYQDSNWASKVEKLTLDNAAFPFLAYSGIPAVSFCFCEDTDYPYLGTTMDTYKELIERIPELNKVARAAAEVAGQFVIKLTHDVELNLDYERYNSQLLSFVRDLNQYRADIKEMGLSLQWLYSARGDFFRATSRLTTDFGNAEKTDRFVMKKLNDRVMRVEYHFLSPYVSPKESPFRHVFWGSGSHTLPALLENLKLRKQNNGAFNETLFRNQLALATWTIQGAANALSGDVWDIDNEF
Procedure: (§4) FIG. 15. Binding activity of TXP1 and deimmunized variants assessed by ELISA. Plates were coated with either human or cynomolgus or rat TfR-1. HSA was used as a negative control. Serial dilutions of TXP1 (a VNAR antibody) or the variants as Fc fusions were added to the plate and binding was measured by end-point ELISA upon incubation with secondary anti-hFc HRP-conjugated antibodies and visualization with TMB.
as §3

[3] = target: T6, recombinant cynomolgus TfR-1 (cynomolgus, UniProt H9EXL1 89-760 (rhesus entry)); test: ELISA, plate coated with cynomolgus TfR-1, anti-hFc HRP, 4-parameter fit; drawn table under the curves
T6 construct: also called cTfR-1; cTfR1
T6 sequence (chain, as listed by the source): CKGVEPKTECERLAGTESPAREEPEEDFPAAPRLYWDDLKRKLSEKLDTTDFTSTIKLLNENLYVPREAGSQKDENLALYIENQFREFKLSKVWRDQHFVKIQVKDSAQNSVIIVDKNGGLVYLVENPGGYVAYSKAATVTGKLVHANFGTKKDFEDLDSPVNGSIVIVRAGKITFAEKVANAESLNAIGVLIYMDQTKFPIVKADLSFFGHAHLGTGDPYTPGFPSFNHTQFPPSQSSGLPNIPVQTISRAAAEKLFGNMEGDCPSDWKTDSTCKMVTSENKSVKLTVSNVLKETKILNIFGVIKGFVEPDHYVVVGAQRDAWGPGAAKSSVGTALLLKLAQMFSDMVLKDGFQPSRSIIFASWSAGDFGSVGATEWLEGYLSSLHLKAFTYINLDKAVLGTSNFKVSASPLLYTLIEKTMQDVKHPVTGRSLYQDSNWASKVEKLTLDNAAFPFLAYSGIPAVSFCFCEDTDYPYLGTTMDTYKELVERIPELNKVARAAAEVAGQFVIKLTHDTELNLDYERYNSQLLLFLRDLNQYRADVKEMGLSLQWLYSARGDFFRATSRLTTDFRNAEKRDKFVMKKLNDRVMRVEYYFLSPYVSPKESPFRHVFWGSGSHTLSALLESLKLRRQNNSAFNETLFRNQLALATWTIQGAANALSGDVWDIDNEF
Procedure: as §4, §3

[4] = target: T5, recombinant human TfR-1 (transferrin …); test: ELISA on hTfR-1 captured by plate-coated human Tf (receptor already bound to Tf), detection with anti-hFc HRP and TMB
Procedure: Competition ELISAs. For competition studies, MaxiSorp plates were coated with 100 μl of human Tf, at the concentration of 5 μg/ml overnight at 4° C. Plates were washed with phosphate-buffered saline containing 0.1% Tween20 (PBST) and blocked for 1 h with 2.5% BSA in PBST. Wells were incubated with 50 μl of hTfR-1 at 10 μg/ml for 1 h at RT and washed before adding serially diluted TXP1 and A06 VNAR antibodies for 1 h at RT. Following washing, 100 μl of 1:5,000 anti-hFc HRP-conjugated antibody (Sigma) diluted in 2.5% BSA in PBST was added and incubated for 1 h. Plates were washed and developed with SureBlue™ TMB substrate, the reaction stopped with 1% HCl and absorbance measured at 450 nm.
TXP1 competition with Tf for binding to TfR-1 was assessed by ELISA. Plates coated with Tf were used to capture hTfR-1 before incubation with serial dilutions of TXP1, A06 VNAR antibody or isotype control G12 VNAR antibody. While TXP1 and A06 VNAR antibody bind with similar nM KD in the absence of Tf (Table 5), when TfR-1 was bound to Tf, TXP1 but not the A06 VNAR antibody was still able to bind the receptor (FIG. 4).

[5] = target: T5, recombinant human TfR-1 (transferrin …); test: SPR
[6] = target: T6, recombinant cynomolgus TfR-1; test: SPR
[7] = target: T1, human TfR-1 on the cell surface …; test: flow cytometry on hCMEC/D3 cells, 1 h on ice, binding to cell surface TfR1
Procedure: as §1, with “Dead or dying cells were excluded from the analysis by propidium iodide staining.” left out
Functional activity of the fully deimmunised variants was assessed using the human endothelial cell line hCMEC/D3 and the human neuronal cell line SY-SH5Y. Binding to hCMEC/D3 cells was assessed by incubation with serial antibody dilutions for 1 h on ice to avoid internalisation. The cells were fixed and binding to cell surface TfR1 was measured by flow cytometry. […] Internalisation via cell-surface hTfR1 was assessed using the hCMEC/D3 and SY-SH5Y cell lines by incubation with the antibodies for 1 hour at 37° C.

T1 sequence (P02786 whole entry): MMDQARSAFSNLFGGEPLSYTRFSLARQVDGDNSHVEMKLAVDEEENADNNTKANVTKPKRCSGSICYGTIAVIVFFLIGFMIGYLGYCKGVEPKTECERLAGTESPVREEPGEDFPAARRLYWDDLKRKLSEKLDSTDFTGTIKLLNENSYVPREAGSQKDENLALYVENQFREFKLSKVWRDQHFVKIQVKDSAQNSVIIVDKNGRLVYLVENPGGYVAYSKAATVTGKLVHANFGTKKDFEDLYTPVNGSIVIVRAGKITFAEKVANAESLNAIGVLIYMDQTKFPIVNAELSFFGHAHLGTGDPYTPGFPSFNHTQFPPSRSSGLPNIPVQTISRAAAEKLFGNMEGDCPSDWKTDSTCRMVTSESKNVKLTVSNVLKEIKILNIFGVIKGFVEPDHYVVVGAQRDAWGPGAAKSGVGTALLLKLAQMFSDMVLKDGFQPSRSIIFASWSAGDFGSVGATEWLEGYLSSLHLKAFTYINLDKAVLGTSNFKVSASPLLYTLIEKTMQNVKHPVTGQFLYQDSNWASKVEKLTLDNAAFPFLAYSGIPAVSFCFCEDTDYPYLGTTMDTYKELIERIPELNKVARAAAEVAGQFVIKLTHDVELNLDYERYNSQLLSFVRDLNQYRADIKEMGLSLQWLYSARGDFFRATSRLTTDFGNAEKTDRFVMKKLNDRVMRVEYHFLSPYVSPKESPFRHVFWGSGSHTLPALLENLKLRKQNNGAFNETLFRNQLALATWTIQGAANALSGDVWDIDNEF

- EC50 [1]: 10.1 nM
- binding result (HSA): no binding (tested: about 2e-6 M)
- binding result (recombinant rat TfR-1): no binding (tested: about 2e-6 M)
- binding result (recombinant mouse TfR-1): no binding (tested: about 2e-6 M)
- EC50 [2]: 2.9 nM
- EC50 [3]: 3.3 nM
- EC50 (read off the curve) [4]: ~10 nM
B1: TXP1 (VNAR-txp1 fused to the N-terminus of human IgG1 Fc with attenuated effector function) (Fc fusion)
VNAR: ARVDQTPQTITKETGESLTINCVLRDSNCALSSTYWYRKKSGSTNEENISKGGRYVETVNSGSKSFSLKINDLTVEDSGTYRCNVVGTWCMSWRDVYGGGTAVTVNA
notes: Bivalent VNAR-hFc, VNAR at the N-terminus of hFc IgG1; also called VNAR-txp1-hFc; VNAR antibody TXP1; not shown: Human IgG1 Fc with AEF mutations (E233P/L234V/L235A/ΔG236+A327G/A330S/P331S), and any hinge or linker at the junction

- Kd [5]: 3 nM
- koff [5]: 0.00026 s⁻¹
- kon [5]: 87000 M⁻¹ s⁻¹
- Kd [6]: 1.7 nM
- koff [6]: 0.00014 s⁻¹
- kon [6]: 87000 M⁻¹ s⁻¹
- EC50 [7]: 2.1 nM
B2: TXP1D4 (deimmunized variant VNAR-r2d4 fused to human IgG1 Fc) (Fc fusion)
VNAR: ARVDQTPQTATKETGESLTINCVLRDSNCALSSTYWYRKKSGSTNEENISKGGRKYVETVESGSKSFSLKINDLTVEDSGTYRCNVVGTWCMSWRDVSGDGTVVTVNA
notes: also called VNAR-r2d4-Fc; not shown: Human IgG1 AEF Fc and any hinge or linker at the junction
